The results in this text go back to paper PMC12538056, “The effects of naturally occurring mutations on functionality of oxylipin metabolizing dehydrogenase reductase nine” (The Journal of Biological Chemistry, 2025).

The data set deals with the molecule itself. The data set is described as follows: not stated; purified water-soluble DHRS9 in solution; the method is shown only in Fig. S3.

The term stoichiometry N denotes a count of units in the complex or per binding partner.

B1: water-soluble form of mouse DHRS9 (dehydrogenase reductase 9) lacking the N-terminal transmembrane segment (enzyme, UniProt Q58NB6 17-319, looked up)
chain: NYKGQLKIADIADKYVFITGCDTGFGNLAARTFDKKGFRVIAACLTESGSAALKAKTSERLHTVLLDVTDPENVKKTAQWVKSHVGEKGLWGLINNAGVLGVLAPTDWLTVDDYREPIEVNLFGLINVTLNMLPLVKKARGRVINVSSIGGRLAFGGGGYTPSKYAVEGFNDSLRRDMKAFGVHVSCIEPGLFKTELADPIKTTEKKLAIWKHLSPDIKQQYGEGYIEKSLHRLKSNTSSVNLDLSLVVGCMDHALTSLFPKTRYIAGKDAKTFWIPLSHMPAVLQDFLLLKQKVELANPKAV
notes: mouse DHRS9 lacking the first 16 amino acids that form the transmembrane segment; residues 17 to 319; cDNA made by RT-PCR from mouse skin; Crystallised in complex with NADH; In the model, residues 21-319 (chain A) and 22-319 (chain B) are seen; the tag and residues 17-20/21 could not be located; also called soluble form of DHRS9; truncated DHRS9 protein; not shown: His10, N-terminal, kept
B1: the “stoichiometry N” value is 2.
